Measured values published in publication PMC8004985, “Affinity Purification of Angiotensin Converting Enzyme Inhibitory Peptides from Wakame (Undaria Pinnatifida) Using Immobilized ACE on Magnetic Metal Organic Frameworks” (Marine Drugs, 2021).

What was measured:
[1] = Enzyme characterisation of free and immobilized ACE (optimum pH, temperature, Ea, Km, Vmax); type: biochemical, pig
Description: (§1) The ACE was prepared from pig lung and the precipitates were dialyzed and used as a crude enzyme sample for the immobilization of ACE [6]. Twenty-five milligrams of Fe3O4@ZIF-90 nanoparticles were dispersed in 2 mL of crude sample, and incubated with shaking for a certain time at different temperatures to immobilize the ACE. The immobilized ACE (Fe3O4@ZIF-90-ACE) was magnetically recovered and the precipitate was washed several times by 0.1 M phosphate (PBS) buffer until the supernatant was free of protein. Immobilized ACE was quantified using the Bradford method, which used bovine serum albumin (BSA) as the standard. Finally, the obtained immobilized ACE was stored at −80 °C. Enzyme loading capacity was calculated using Equation (1):(1) Enzyme loading capacity(mg⋅g^−1)=(Total protein content-supernatant protein content) /Total mass of Fe3O4@ZIF-90
(§2) ACE activity was evaluated by measuring the amount of hippuric acid (HA). The assay mixture (0.3 mL) consisted of 130 µL BBS buffer pH 8.3 ([…], containing 0.3 M NaCl), 40 µL HHL (5 mM), and different amounts of the free and immobilized ACE. Incubation was carried out at 37 °C for 10 min and was terminated by addition of HCl (0.1 mL, 1 M). The HA content of the mixture was determined by RP-HPLC (Agilent 1260) at 228 nm with a DAD detector. One unit of ACE enzyme activity (U) was defined as the amount of enzyme catalyzing HHL to generate 1 µM of HA per minute under the experimental conditions.

[2] = Enzymatic stability and reusability of free and immobilized ACE; type: biochemical, pig
Description: as §1
To determine thermal stability, the immobilized ACE was dispersed in PBS buffer in the absence of the HHL substrate at 20–60 °C for 1 h. […]
The storage stability of immobilized ACE was determined by storing at −20 °C for 30 days. The enzyme activity was then measured, and the relative activity was compared with that of the untreated ACE. The immobilized ACE was evaluated over six successive cycles to investigate the reusability stability; the first-time detection activity was considered as 100%.
as §2

[3] = HHL substrate, Table S2, Lineweaver-Burk

B1: free ACE: free angiotensin-I-converting enzyme (protein, UniProt P12821 30-1306, looked up)
Angiotensin-converting enzyme: LDPGLQPGNFSADEAGAQLFAQSYNSSAEQVLFQSVAASWAHDTNITAENARRQEEAALLSQEFAEAWGQKAKELYEPIWQNFTDPQLRRIIGAVRTLGSANLPLAKRQQYNALLSNMSRIYSTAKVCLPNKTATCWSLDPDLTNILASSRSYAMLLFAWEGWHNAAGIPLKPLYEDFTALSNEAYKQDGFTDTGAYWRSWYNSPTFEDDLEHLYQQLEPLYLNLHAFVRRALHRRYGDRYINLRGPIPAHLLGDMWAQSWENIYDMVVPFPDKPNLDVTSTMLQQGWNATHMFRVAEEFFTSLELSPMPPEFWEGSMLEKPADGREVVCHASAWDFYNRKDFRIKQCTRVTMDQLSTVHHEMGHIQYYLQYKDLPVSLRRGANPGFHEAIGDVLALSVSTPEHLHKIGLLDRVTNDTESDINYLLKMALEKIAFLPFGYLVDQWRWGVFSGRTPPSRYNFDWWYLRTKYQGICPPVTRNETHFDAGAKFHVPNVTPYIRYFVSFVLQFQFHEALCKEAGYEGPLHQCDIYRSTKAGAKLRKVLQAGSSRPWQEVLKDMVGLDALDAQPLLKYFQPVTQWLQEQNQQNGEVLGWPEYQWHPPLPDNYPEGIDLVTDEAEASKFVEEYDRTSQVVWNEYAEANWNYNTNITTETSKILLQKNMQIANHTLKYGTQARKFDVNQLQNTTIKRIIKKVQDLERAALPAQELEEYNKILLDMETTYSVATVCHPNGSCLQLEPDLTNVMATSRKYEDLLWAWEGWRDKAGRAILQFYPKYVELINQAARLNGYVDAGDSWRSMYETPSLEQDLERLFQELQPLYLNLHAYVRRALHRHYGAQHINLEGPIPAHLLGNMWAQTWSNIYDLVVPFPSAPSMDTTEAMLKQGWTPRRMFKEADDFFTSLGLLPVPPEFWNKSMLEKPTDGREVVCHASAWDFYNGKDFRIKQCTTVNLEDLVVAHHEMGHIQYFMQYKDLPVALREGANPGFHEAIGDVLALSVSTPKHLHSLNLLSSEGGSDEHDINFLMKMALDKIAFIPFSYLVDQWRWRVFDGSITKENYNQEWWSLRLKYQGLCPPVPRTQGDFDPGAKFHIPSSVPYIRYFVSFIIQFQFHEALCQAAGHTGPLHKCDIYQSKEAGQRLATAMKLGFSRPWPEAMQLITGQPNMSASAMLSYFKPLLDWLRTENELHGEKLGWPQYNWTPNSARSEGPLPDSGRVSFLGLDLDAQQARVGQWLLLFLGIALLVATLGLSQRLFSIRHRSLHRHSHGPQFGSEVELRHS
In the case of B1, the “loss of relative activity between 35°C and 50°C” value ([1]; 35°C to 50°C) is reported as greater than 40%, the “Ea (activation energy)” value ([1]; Arrhenius equation, Fig. S5 (c)) is reported as 8.535 kcal/mol and the “Optimum pH” value ([1]; Fig. S5 (a)) is reported as 8.3. For the same molecule, the optimum temperature ([1]; Fig. S5 (b)) was 40 °C, the Km [1, 3] was 1960 µM and the Vmax [1, 3] was 46.296 mmol/min. The catalytic efficiency ([1]; Table S2) was 23.596, the “activity lost on storage” value ([2]; 30 days, −20 °C) was 45.04% and the “residual activity (thermal stability)” value ([2]; after heating at 60 °C for 1 h, PBS buffer, absence of HHL) was 22.03%. For the same molecule, the “relative activity (pH stability)” value ([2]; pH 5.0–10.0 (method: pH 5.0–9.0), 1 h) was 37.05%.
